Experimental data from patent US20240408194A1, “DNA ORIGAMI SUBUNIT VACCINE FOR PREVENTION OF SARS-CoV-2 VARIANT INFECTION” (priority 2021, published 2024).

Key:
[1] = molecular target: T1, SARS-CoV-2 spike protein receptor binding domain (RBD), monomeric (SARS-CoV-2), P0DTC2
[2] = molecular target: T1, SARS-CoV-2 spike protein receptor …; remark: listed apart in the source

B1: DNA-LCB (designed binder)
chain: CDKEWILQKIYEIMRLLDELGHAEASMRVSDLIYEFMKKGDERLLEEAERLLEEVER
modifications: not checked
[1]
  Fluorescence (average): 2.08e+07
[2]
  protein coverage: 71.6%
